Test results as given in the RNAGym collection of RNA variant scans (doi:10.7554/elife.80360).

B1: HDV Ribozyme (parent)
chain: GGCCGGCAUGGUCCCAGCCUCCUCGCUGGCGCCGGCUGGGCAACAUUCCGAGGGGACCGUCCCCUCGGUAAUGGCGAAUGGGACCCA

Variants of: B1
Test: self-cleavage, relative activity (ratio to wild type); higher = more cleavage; co-transcriptional

Compared with C26A C33A, C26A C33G is higher in self-cleavage: 0.161 for the first, 0.317 for the second.

Compared with C26A C33U, C26G C66U is higher in self-cleavage: 0.796 for the first, 1.16 for the second.

Compared with C26G C66G, C26G C84G is lower in self-cleavage: 1.1 for the first, 0.615 for the second.

First: C26G G80A
Second: C26G G80U
The self-cleavage of the first is higher: 0.789 for the first, 0.261 for the second.

Going from C26G G35U to C26G G35A, the self-cleavage falls from 0.499 to 0.326.

First: C26G G52A
Second: C26A G68A
The self-cleavage of the first is lower: 0.867 for the first, 1.08 for the second.

Compared with C26G C32A, C26G C32G is lower in self-cleavage: 0.326 for the first, 0.203 for the second.

Compared with C26G C32U, C26G C86G is higher in self-cleavage: 0.743 for the first, 0.886 for the second.

Compared with C26G C86U, C26G A43C is lower in self-cleavage: 0.831 for the first, 0.437 for the second.

First: C26G A43U
Second: C26G C33U
The self-cleavage of the first is lower: 0.584 for the first, 0.867 for the second.

Compared with C26A A87C, C26A A87G is lower in self-cleavage: 0.944 for the first, 0.864 for the second.

Going from C26A G29C to C26G G40U, the self-cleavage rises from 0.104 to 0.9.

Compared with C26G G40A, C26A C85U is higher in self-cleavage: 0.912 for the first, 0.942 for the second.

Going from C26A C85A to C26A C85G, the self-cleavage rises from 0.997 to 1.15.

First: C26G C30U
Second: C26G C30A
The self-cleavage of the first is lower: 0.415 for the first, 0.623 for the second.

Going from C26G G29U to C26G G29A, the self-cleavage rises from 0.119 to 0.208.

First: C26A A42C
Second: C26A A42G
The self-cleavage of the first is lower: 0.227 for the first, 0.665 for the second.

Compared with C26G G53A, C26A G73U is lower in self-cleavage: 1.02 for the first, 0.415 for the second.

First: C26A A78U
Second: C26A A51C
The self-cleavage of the first is lower: 0.269 for the first, 1.13 for the second.

Going from C26A A51U to C26A U79A, the self-cleavage falls from 1.08 to 0.997.

Compared with C26A U79C, C26G A71U is higher in self-cleavage: 0.469 for the first, 0.612 for the second.

Going from C26G A71G to C26G A71C, the self-cleavage rises from 0.475 to 0.85.

Compared with G25U U79G, C26G G54C is higher in self-cleavage: 0.0426 for the first, 0.782 for the second.

Compared with C26G G54U, C26A A83G is lower in self-cleavage: 0.941 for the first, 0.729 for the second.

Going from C26A A83C to C26A A83U, the self-cleavage rises from 0.752 to 0.796.

Going from C26A G52A to C26A G52U, the self-cleavage falls from 1.06 to 0.798.

First: C26G A78U
Second: C26G A78G
The self-cleavage of the first is lower: 0.401 for the first, 0.633 for the second.

First: C26A C58U
Second: C26G C49G
The self-cleavage of the first is higher: 0.981 for the first, 0.87 for the second.

First: C26G C49U
Second: C26G G50C
The self-cleavage of the first is lower: 0.935 for the first, 0.997 for the second.

Going from C26G G50U to C26G G81A, the self-cleavage falls from 1.05 to 0.77.

Compared with C26G G55U, C26G G28U is lower in self-cleavage: 0.975 for the first, 0.0396 for the second.

First: C26G G28C
Second: C26A C44A
The self-cleavage of the first is lower: 0.0504 for the first, 0.914 for the second.

First: C26A C44U
Second: C26A A43U
The self-cleavage of the first is higher: 0.95 for the first, 0.527 for the second.

Compared with C26G G67A, C26A G55A is higher in self-cleavage: 0.696 for the first, 0.888 for the second.

First: C26A C64U
Second: C26A C64A
The self-cleavage of the first is higher: 1.13 for the first, 1.02 for the second.

Compared with C26G C36G, C26A G67A is higher in self-cleavage: 0.237 for the first, 1.01 for the second.

Compared with C26A A56G, C26A A56C is higher in self-cleavage: 0.957 for the first, 1.06 for the second.

Going from C26A G50U to C26A G50C, the self-cleavage rises from 0.958 to 1.16.

Going from C26G C64A to C26G C64U, the self-cleavage rises from 0.554 to 0.99.

Going from C26A U60C to C26A U60G, the self-cleavage rises from 0.81 to 1.2.

Compared with C26A C49A, C26G G76C is lower in self-cleavage: 1.11 for the first, 0.884 for the second.

Compared with C26G G76A, C26A G34C is lower in self-cleavage: 0.914 for the first, 0.111 for the second.

Compared with C26A G34U, C26A C30G is lower in self-cleavage: 0.683 for the first, 0.17 for the second.

Going from C26A G81U to C26A G81C, the self-cleavage falls from 0.519 to 0.193.

First: C26A G76A
Second: C26A G76C
The self-cleavage of the first is lower: 1.03 for the first, 1.08 for the second.

Compared with C26A G76U, C26G A51G is lower in self-cleavage: 1.05 for the first, 0.997 for the second.

Going from C26G A51U to C26A G35A, the self-cleavage falls from 0.95 to 0.633.

Compared with C26A A70U, C26A U27A is lower in self-cleavage: 1.23 for the first, 0.749 for the second.

Going from C26A C41A to C26A U72A, the self-cleavage falls from 1.17 to 0.692.

Going from C26A C63A to C26A C63U, the self-cleavage rises from 0.724 to 0.869.

Going from C26A G39C to C26A G39A, the self-cleavage rises from 0 to 0.234.

First: C26G C48U
Second: C26G C48G
The self-cleavage of the first is lower: 0.877 for the first, 1.02 for the second.

Compared with C26A U65A, C26A U46A is lower in self-cleavage: 0.966 for the first, 0.77 for the second.

Going from C26A U46G to C26A U69G, the self-cleavage rises from 0.86 to 1.15.

Compared with C26A U69C, C26G C57G is higher in self-cleavage: 0.988 for the first, 1.04 for the second.

First: C26G G73A
Second: C26G G73C
The self-cleavage of the first is higher: 0.57 for the first, 0.492 for the second.

Going from C26A C84U to C26A C84A, the self-cleavage falls from 0.854 to 0.787.

First: C26A C84G
Second: C26G A56C
The self-cleavage of the first is lower: 0.95 for the first, 1.25 for the second.

Compared with C26G A56U, C26A U47C is lower in self-cleavage: 1.23 for the first, 0.646 for the second.

Compared with C26G A70G, C26A C48U is higher in self-cleavage: 0.665 for the first, 0.941 for the second.

First: C26A G38C
Second: C26A G38A
The self-cleavage of the first is lower: 0.122 for the first, 0.153 for the second.

First: C26A A77C
Second: C26A A77U
The self-cleavage of the first is lower: 0.266 for the first, 0.597 for the second.

Going from C26A G59C to C26A G59U, the self-cleavage rises from 0.944 to 1.12.

Going from C26G G38C to C26G G38U, the self-cleavage rises from 0.151 to 0.435.

Compared with C26A G74A, C26G G59A is higher in self-cleavage: 0.573 for the first, 0.903 for the second.

First: C26G G59C
Second: C26G C63G
The self-cleavage of the first is higher: 0.87 for the first, 0.653 for the second.

Going from C26G C63U to C26G C63A, the self-cleavage rises from 0.743 to 0.748.

Compared with C26A C62A, C26G A42U is lower in self-cleavage: 1.15 for the first, 0.449 for the second.

Going from C26A C66G to C26A C57A, the self-cleavage falls from 1.15 to 1.02.

Going from C26A C57G to C26G C44G, the self-cleavage falls from 1.1 to 0.554.

Compared with C26G C44A, C26G C58A is higher in self-cleavage: 0.554 for the first, 1.06 for the second.

First: C26G C58G
Second: C26G G68C
The self-cleavage of the first is lower: 0.906 for the first, 1.07 for the second.

Going from C26G G68U to C26G A87U, the self-cleavage rises from 0.686 to 0.976.

Compared with C26A C75A, C26G A77G is higher in self-cleavage: 0.0415 for the first, 0.929 for the second.

Going from C26G A77U to C26A A71U, the self-cleavage rises from 0.447 to 0.785.

Compared with C26A G40C, C26A C36A is lower in self-cleavage: 0.601 for the first, 0.143 for the second.

Going from C26A G31U to C26G G34U, the self-cleavage rises from 0.425 to 0.525.

First: C26A C86G
Second: C26A C86U
The self-cleavage of the first is higher: 0.888 for the first, 0.735 for the second.

Compared with C26A C86A, C26G C75G is lower in self-cleavage: 1.13 for the first, 0.227 for the second.

Going from C26G C75U to C26A G53A, the self-cleavage rises from 0.262 to 0.845.

First: C26G C62G
Second: C26A U37C
The self-cleavage of the first is lower: 0.516 for the first, 1.13 for the second.

First: C26G C41A
Second: C26A C32U
The self-cleavage of the first is higher: 1.04 for the first, 0.816 for the second.

Going from C26A C32A to C26A G82C, the self-cleavage rises from 0.216 to 0.342.

C26A G82U showed a self-cleavage of 0.317.
